# Experimental data: article PMC10786891, “Massively parallel profiling of RNA-targeting CRISPR-Cas13d”
# Positions count from the first letter of the chain named. Names and notes keep the numbering of the source.
# B1: target 1 insU 3' of 17,insG 3' of 2 (mixed)
# RNA 1: CACCCGUGCAAAAAUGCAGGGGUCUAAAACUGAGCGGAUAACCUCUCUAUGG
# RNA 2: GGGAAUGGAUCCACAUCUACGAAUUCGUACCAUAGUAGAGGUUAUCCGCUCGACCGAGAUCGGAAGAGCACACGU
# B2: target 1 insA 3' of 19,insC 3' of 10 (mixed)
# RNA 1: B1 RNA 1
# RNA 2: GGGAAUGGAUCCACAUCUACGAAUUCGUACCAUAAGAGAGGUUCAUCCGCUCACCGAGAUCGGAAGAGCACACGU
# B3: target 1 insU 3' of 15,insG 3' of 10 (mixed)
# RNA 1: B1 RNA 1
# RNA 2: B2 RNA 2 with A35G, G36A, A37G, G38U, C44G
# B4: target 1 U3A,C4A (mixed)
# RNA 1: B1 RNA 1
# RNA 2: GGGAAUGGAUCCACAUCUACGAAUUCGUACCAUAGAGAGGUUAUCCGAACACCGAGAUCGGAAGAGCACACGU
# B5: target 2 MT 5'PFS UGU 3'PFS AUU (mixed)
# RNA 1: CACCCGUGCAAAAUUGCAGGGGUCUAAAACCUUCUCCAAAUUGUUUCAUCCU
# RNA 2: GGGAAUGGAUCCACAUCUACGAAUUCUGUAGGAUGAAACAAUUUGGAGAAGAUUAGAUCGGAAGAGCACACGU
# B6: target 2 MT 5'PFS UCA 3'PFS CCU (mixed)
# RNA 1: B5 RNA 1
# RNA 2: B5 RNA 2 with G28C, U29A, A52C, U53C
# B7: target 2 MT 5'PFS GAC 3'PFS AGA (mixed)
# RNA 1: B5 RNA 1
# RNA 2: B5 RNA 2 with U27G, G28A, U29C, U53G, U54A
# B8: target 2 MT 5'PFS UGG 3'PFS AAU (mixed)
# RNA 1: B5 RNA 1
# RNA 2: B5 RNA 2 with U29G, U53A
# B9: target 2 MT 5'PFS GGU 3'PFS AAU (mixed)
# RNA 1: B5 RNA 1
# RNA 2: B5 RNA 2 with U27G, U53A
# B10: target 2 MT 5'PFS GUG 3'PFS CUA (mixed)
# RNA 1: B5 RNA 1
# RNA 2: B5 RNA 2 with U27G, G28U, U29G, A52C, U54A
# B11: target 2 MT 5'PFS AAA 3'PFS CCA (mixed)
# RNA 1: B5 RNA 1
# RNA 2: B5 RNA 2 with U27A, G28A, U29A, A52C, U53C, U54A
# B12: target 2 MT 5'PFS CCU 3'PFS CCA (mixed)
# RNA 1: B5 RNA 1
# RNA 2: B5 RNA 2 with U27C, G28C, A52C, U53C, U54A
# B13: target 2 MT 5'PFS UCA 3'PFS CCG (mixed)
# RNA 1: B5 RNA 1
# RNA 2: B5 RNA 2 with G28C, U29A, A52C, U53C, U54G
# B14: target 2 MT 5'PFS GUG 3'PFS CUC (mixed)
# RNA 1: B5 RNA 1
# RNA 2: B5 RNA 2 with U27G, G28U, U29G, A52C, U54C
# B15: target 2 MT 5'PFS UAC 3'PFS AUA (mixed)
# RNA 1: B5 RNA 1
# RNA 2: B5 RNA 2 with G28A, U29C, U54A
# B16: target 2 MT 5'PFS UCA 3'PFS AAC (mixed)
# RNA 1: B5 RNA 1
# RNA 2: B5 RNA 2 with G28C, U29A, U53A, U54C
# B17: target 2 MT 5'PFS AAU 3'PFS UCU (mixed)
# RNA 1: B5 RNA 1
# RNA 2: B5 RNA 2 with U27A, G28A, A52U, U53C
# B18: target 2 MT 5'PFS GAC 3'PFS AGC (mixed)
# RNA 1: B5 RNA 1
# RNA 2: B5 RNA 2 with U27G, G28A, U29C, U53G, U54C
# B19: target 2 MT 5'PFS CAC 3'PFS AUG (mixed)
# RNA 1: B5 RNA 1
# RNA 2: B5 RNA 2 with U27C, G28A, U29C, U54G
# B20: target 2 MT 5'PFS GAC 3'PFS AGG (mixed)
# RNA 1: B5 RNA 1
# RNA 2: B5 RNA 2 with U27G, G28A, U29C, U53G, U54G
# B21: target 2 MT 5'PFS GCG 3'PFS CUC (mixed)
# RNA 1: B5 RNA 1
# RNA 2: B5 RNA 2 with U27G, G28C, U29G, A52C, U54C
# B22: target 2 MT 5'PFS GCC 3'PFS UGC (mixed)
# RNA 1: B5 RNA 1
# RNA 2: B5 RNA 2 with U27G, G28C, U29C, A52U, U53G, U54C
# B23: target 2 MT 5'PFS AAG 3'PFS AAU (mixed)
# RNA 1: B5 RNA 1
# RNA 2: B5 RNA 2 with U27A, G28A, U29G, U53A
# B24: target 2 MT 5'PFS UAC 3'PFS AUC (mixed)
# RNA 1: B5 RNA 1
# RNA 2: B5 RNA 2 with G28A, U29C, U54C
# B25: target 2 MT 5'PFS CAC 3'PFS AUC (mixed)
# RNA 1: B5 RNA 1
# RNA 2: B5 RNA 2 with U27C, G28A, U29C, U54C
# B26: target 2 MT 5'PFS GCG 3'PFS CUU (mixed)
# RNA 1: B5 RNA 1
# RNA 2: B5 RNA 2 with U27G, G28C, U29G, A52C
# B27: target 2 MT 5'PFS UGG 3'PFS CCG (mixed)
# RNA 1: B5 RNA 1
# RNA 2: B5 RNA 2 with U29G, A52C, U53C, U54G
# B28: target 2 MT 5'PFS GCC 3'PFS UGA (mixed)
# RNA 1: B5 RNA 1
# RNA 2: B5 RNA 2 with U27G, G28C, U29C, A52U, U53G, U54A
# B29: target 2 MT 5'PFS AAU 3'PFS UCC (mixed)
# RNA 1: B5 RNA 1
# RNA 2: B5 RNA 2 with U27A, G28A, A52U, U53C, U54C
# B30: target 2 MT 5'PFS CUU 3'PFS AUA (mixed)
# RNA 1: B5 RNA 1
# RNA 2: B5 RNA 2 with U27C, G28U, U54A
# B31: target 2 MT 5'PFS UCA 3'PFS CCA (mixed)
# RNA 1: B5 RNA 1
# RNA 2: B5 RNA 2 with G28C, U29A, A52C, U53C, U54A
# B32: target 2 MT 5'PFS UAC 3'PFS AUG (mixed)
# RNA 1: B5 RNA 1
# RNA 2: B5 RNA 2 with G28A, U29C, U54G
# B33: target 2 MT 5'PFS GUG 3'PFS CUG (mixed)
# RNA 1: B5 RNA 1
# RNA 2: B5 RNA 2 with U27G, G28U, U29G, A52C, U54G
# B34: target 2 MT 5'PFS UAC 3'PFS AUU (mixed)
# RNA 1: B5 RNA 1
# RNA 2: B5 RNA 2 with G28A, U29C
# B35: target 2 MT 5'PFS GAC 3'PFS AGU (mixed)
# RNA 1: B5 RNA 1
# RNA 2: B5 RNA 2 with U27G, G28A, U29C, U53G
# B36: target 2 MT 5'PFS AAA 3'PFS CCU (mixed)
# RNA 1: B5 RNA 1
# RNA 2: B5 RNA 2 with U27A, G28A, U29A, A52C, U53C
# B37: target 2 MT 5'PFS UAU 3'PFS UAU (mixed)
# RNA 1: B5 RNA 1
# RNA 2: B5 RNA 2 with G28A, A52U, U53A
# B38: target 2 MT 5'PFS AAA 3'PFS CCG (mixed)
# RNA 1: B5 RNA 1
# RNA 2: B5 RNA 2 with U27A, G28A, U29A, A52C, U53C, U54G
# Molecular target: T1, EsCas13d, nuclease-dead (Eubacterium siraeum, UniProt B0MS50, R295A;H300A;R849A;H854A)
# T1 sequence: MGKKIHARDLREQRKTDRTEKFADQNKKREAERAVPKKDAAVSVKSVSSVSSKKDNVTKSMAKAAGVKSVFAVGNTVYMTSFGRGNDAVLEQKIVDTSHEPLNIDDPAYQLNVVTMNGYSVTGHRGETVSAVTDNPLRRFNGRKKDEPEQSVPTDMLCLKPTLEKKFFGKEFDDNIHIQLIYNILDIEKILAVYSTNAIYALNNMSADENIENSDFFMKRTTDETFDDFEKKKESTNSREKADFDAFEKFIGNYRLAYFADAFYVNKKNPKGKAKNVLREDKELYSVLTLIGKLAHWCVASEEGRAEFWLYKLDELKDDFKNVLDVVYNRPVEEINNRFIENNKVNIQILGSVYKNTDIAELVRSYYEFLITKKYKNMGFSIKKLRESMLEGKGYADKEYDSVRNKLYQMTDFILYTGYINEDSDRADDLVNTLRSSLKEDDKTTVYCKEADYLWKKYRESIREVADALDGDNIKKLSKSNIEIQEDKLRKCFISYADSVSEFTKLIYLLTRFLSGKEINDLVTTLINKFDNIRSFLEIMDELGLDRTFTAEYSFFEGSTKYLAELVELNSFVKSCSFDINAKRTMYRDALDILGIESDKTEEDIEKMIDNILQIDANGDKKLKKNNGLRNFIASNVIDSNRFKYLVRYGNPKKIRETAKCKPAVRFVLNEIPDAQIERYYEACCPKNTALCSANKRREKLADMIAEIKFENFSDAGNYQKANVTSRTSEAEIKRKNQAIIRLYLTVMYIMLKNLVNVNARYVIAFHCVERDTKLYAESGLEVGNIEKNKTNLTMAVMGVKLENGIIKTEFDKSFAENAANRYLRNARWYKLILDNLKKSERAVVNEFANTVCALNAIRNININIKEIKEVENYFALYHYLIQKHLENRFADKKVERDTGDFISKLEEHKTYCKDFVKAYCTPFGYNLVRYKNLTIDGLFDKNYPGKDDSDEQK
# Test: crRNA (strand 1, pre-loaded); Mg2+; 40 mM Tris-HCl pH 7.5, 150 mM NaCl, 6 mM MgCl2, 1 mM DTT, 0.1% Tween-20, 0.2 mg/ml BSA; 25 C; 10 min per concentration, then washed
# Details: tags: His6-TwinStrep-SUMO cleaved; N-terminal SNAP kept (SNAP-Surface 488); label: 3' end held by stalled T7 RNA polymerase
binder,measurement,value
B1,Kd,19.8 ± 2.5 nM
B2,Kd,40 ± 4 nM
B3,Kd,21.6 ± 2.9 nM
B4,Kd,8.5 ± 0.9 nM
B5,Kd,11.9 ± 1.7 nM
B6,Kd,~30 nM
B7,Kd,16 ± 6 nM
B8,Kd,5.9 ± 0.7 nM
B9,Kd,12.4 ± 2.2 nM
B10,Kd,8.5 ± 0.7 nM
B11,Kd,10 ± 2.5 nM
B12,Kd,1.72 ± 0.2 nM
B13,Kd,5 ± 0.9 nM
B14,Kd,21.4 ± 2 nM
B15,Kd,4.9 ± 0.7 nM
B16,Kd,7.5 ± 1.1 nM
B17,Kd,10.7 ± 2 nM
B18,Kd,9.3 ± 1.3 nM
B19,Kd,1.4 ± 0.21 nM
B20,Kd,9.5 ± 0.8 nM
B21,Kd,21 ± 4 nM
B22,Kd,10.9 ± 1.7 nM
B23,Kd,3.1 ± 0.5 nM
B24,Kd,7 ± 1.7 nM
B25,Kd,2 ± 0.4 nM
B26,Kd,24 ± 6 nM
B27,Kd,8.6 ± 0.8 nM
B28,Kd,17 ± 5 nM
B29,Kd,11.8 ± 1.9 nM
B30,Kd,4.7 ± 0.7 nM
B31,Kd,10 ± 4 nM
B32,Kd,6.8 ± 1.4 nM
B33,Kd,10.1 ± 0.7 nM
B34,Kd,9.3 ± 2.9 nM
B35,Kd,~43 nM
B36,Kd,34 ± 13 nM
B37,Kd,35 ± 8 nM
B38,Kd,5.7 ± 0.9 nM
